In article PMC12441119 (2025):

T1: STK4 (residues 11–326) K59R (human, UniProt Q13043 11-326, K59R)
T1 sequence: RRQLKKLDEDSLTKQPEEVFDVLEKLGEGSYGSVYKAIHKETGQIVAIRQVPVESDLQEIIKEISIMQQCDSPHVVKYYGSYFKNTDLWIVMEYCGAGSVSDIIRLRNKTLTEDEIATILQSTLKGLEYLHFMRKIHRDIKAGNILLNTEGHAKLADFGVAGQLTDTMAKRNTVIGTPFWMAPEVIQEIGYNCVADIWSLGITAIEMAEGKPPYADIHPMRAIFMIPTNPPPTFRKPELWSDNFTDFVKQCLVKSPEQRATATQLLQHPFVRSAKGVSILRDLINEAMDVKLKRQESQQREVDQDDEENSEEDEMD

T2: STK4 (residues 1–326) K59R (human, UniProt Q13043 1-326, K59R)
T2 sequence: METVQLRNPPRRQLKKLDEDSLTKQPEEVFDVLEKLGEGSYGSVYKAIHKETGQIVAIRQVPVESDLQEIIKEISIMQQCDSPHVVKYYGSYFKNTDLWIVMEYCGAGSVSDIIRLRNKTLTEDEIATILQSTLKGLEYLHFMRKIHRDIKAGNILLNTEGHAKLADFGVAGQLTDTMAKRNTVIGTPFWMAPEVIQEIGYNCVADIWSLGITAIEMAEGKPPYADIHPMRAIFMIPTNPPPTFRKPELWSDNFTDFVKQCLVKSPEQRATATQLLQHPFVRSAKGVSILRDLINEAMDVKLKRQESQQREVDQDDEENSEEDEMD

T3: STK4 (residues 1–326) K59R N239A (human, UniProt Q13043 1-326, K59R | N239A)
T3 sequence: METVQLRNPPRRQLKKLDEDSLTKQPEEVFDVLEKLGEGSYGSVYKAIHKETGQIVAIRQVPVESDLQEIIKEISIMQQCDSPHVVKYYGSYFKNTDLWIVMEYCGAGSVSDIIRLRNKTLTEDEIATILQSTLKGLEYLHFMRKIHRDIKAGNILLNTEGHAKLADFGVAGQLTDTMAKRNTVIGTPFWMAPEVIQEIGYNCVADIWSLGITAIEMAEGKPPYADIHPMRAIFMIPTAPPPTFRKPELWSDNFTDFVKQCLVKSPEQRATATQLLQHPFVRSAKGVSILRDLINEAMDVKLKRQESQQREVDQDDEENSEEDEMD


Tests used:
[1] = target: T1, STK4 (residues 11–326) K59R; test: ITC
[2] = target: T2, STK4 (residues 1–326) K59R; test: ITC
[3] = target: T3, STK4 (residues 1–326) K59R N239A; test: ITC; printed as R239A

Row | Kd [1] [µM] | Kd [2] [µM] | Kd [3] [µM] | Binder
1 | 34.7 | 36.4 |  | HOIP (residues 697–1072) (domain or fragment) QECAVCGWALPHNRMQALTSCECTICPDCFRQHFTIALKEKHITDMVCPACGRPDLTDDTQLLSYFSTLDIQLRESLEPDAYALFHKKLTEGVLMRDPKFLWCAQCSFGFIYEREQLEATCPQCHQTFCVRCKRQWEEQHRGRSCEDFQNWKRMNDPEYQAQGLAMYLQENGIDCPKCKFSYALARGGCMHFHCTQCRHQFCSGCYNAFYAKNKCPEPNCRVKKSLHGHHPRDCLFYLRDWTALRLQKLLQDNNVMFNTEPPAGARAVPGGGCRVIEQKEVPNGLRDEACGKETPAGYAGLCQAHYKEYLVSLINAHSLDPATLYEVEELETATERYLHVRPQPLAGEDPPAYQARLLQKLTEEVPLGQSIPRRRK
2 |  |  | 149 | HOIP (residues 854–1072) (domain or fragment) EYQAQGLAMYLQENGIDCPKCKFSYALARGGCMHFHCTQCRHQFCSGCYNAFYAKNKCPEPNCRVKKSLHGHHPRDCLFYLRDWTALRLQKLLQDNNVMFNTEPPAGARAVPGGGCRVIEQKEVPNGLRDEACGKETPAGYAGLCQAHYKEYLVSLINAHSLDPATLYEVEELETATERYLHVRPQPLAGEDPPAYQARLLQKLTEEVPLGQSIPRRRK
